# Patent US7476500
# Legend:
# Assay in all cases: cell_activity
# [1] = system: I-ScaI I250N I250N; conditions: three site copies in pBar2, E. coli
# [2] = system: I-ScaI D90S D90S; conditions: catalytically inactive, background; binding not tested
# [3] = system: I-ScaI; conditions: three site copies in pBar2, E. coli
sequence,measurement,setting,value
TGAGGTGCACTAGTTA (double strand) [I-ScaI site],activity,[1],27 % survival
same,activity,[2],18 % survival
same,activity,[3],65 % survival
